From patent US20240327502A1 (Merck Sharp & Dohme, published 2024)
Changes are numbered by the printed parent chain.

B1: M4A06 (antibody, V domains shown)
VH: EVQLVESGGGLVRPGGSLRLSCAASGFSLTTDEVNWVRQAPGKGPEWVSFISASGHTIYYADSVKGRFTISRDNGRNSVYLQMNSLRAEDTAVYYCARVGRLGGVGYYYALGPFDLWGQGTMVTVSS
VL: EIVLTQSPGTLSLSPGERATLSCRASQSITSNYLAWYQQKPGQAPRLLIYGASSRATGIPDRFSGSGSGTDFTLTISRLQPEDFAVYYCQQYGSSLYIFGQGTKLEIK
notes: IgG
B2: M2B06 (antibody, V domains shown)
VH: QVQLQESGPRLVKPSGTLSLTCAVSGASITSSHWWTWVRQPPGKGLEWIGRIFHSGSTNYNPSLKSRVTISLDKSRNQFSLTLTSVTAADTAVYYCARDDQIVVMPAGFDRWGQGALVIVSS
VL: DIQMTQSPSSLSASVGDRVTITCRASQTISSYLNWYQQTPGKAPNLLIYGASRLQGGVPSRFSGSGSGTDFTLTISSLQPEDFAIYFCQQSKSIPYTFGQGTRLEIK
notes: IgG
B3: M3A08 (antibody, V domains shown)
VH: EVQLVESGGGLVKPGGSLRLSCAASGFSITSYGMHWVRQAPGKGLEWVSSISSSSSYISYRDSVKGRFTVSRDNAGNSLSLQMNSLRGEDTAVYHCARDAGLVPPWMDSWGQGTLVIVSS
VL: QSVLTQPPSVSGAAGQRVTISCTGSSSNLGTGYDVHWYRQQPGTAPKLIMFGNTNRPSGVPGRFSGSRSGTSASLAITGLQADDEADYYCQSYDSSLGGLVFGGGTKLTVL
notes: IgG
B4: M1A04 (antibody, V domains shown)
VH: EVQLVESGGGLVRPGGSLRLSCAASGFNVRNYYMSWVRQAPGKGLEWISVIYGGGTTFYAGSVKGRFTISRDDSKSTLFLQMNSLRADDTAVYYCARDPGTVMSTENLQGMDVWGQGTTVTVSS
VL: DIQMTQSPSSLSASVGDRVTITCRASQTIRSYLNWYQQKPGKAPNLLIYAATSLQSGVPSRFSGSGSGTDFTLTISSLQPEDSATYYCQQSFSTLYSFGQGTRLEIK
notes: IgG
B5: M7D5 (antibody, V domains shown)
VH: QVQLVQSGAEVKKPGSSVKVSCKASGGTLSNYAISWVRQAPGQGLEWMGGIIPIFGTAMYAHNFQDRVTFTADESTNTVYMAVSRLTSDDTAVYYCAQDRTVTKYAHGLDVWGQGTTVTVSS
VL: DIQMTQSPSSLSASVGDRITITCPASQSLLTYLNWYQQKPGKAPKLLIYSASELPSGVPSRFSGSGSGTEFTLTVTGLQPDDFATYYCQQSHTTPLTFGGGTKVEIKR
notes: IgG
B6: M3A01 (antibody, V domains shown)
VH: EVQLVESGGGLVKPGGSLRLSCSVSAFSISGYNMHWVRQAPGKGLEWVSSITGGSNYINYADSVKGRFTISRDNAQNSLYLQMKSLRAEDTAVYYCARETQPSPGSFDSWGQGTLVTVSS
VL: QSVLTQPPSVSGAPGQRVTISCTGSSSNIGAGYDVNWYQQLPGTAPKLLIYGNYNRPSGVPDRFSASKSGTSASLAITGLQAEDEADYWCQSYDTSLSGWIFGGGTKLTVL
notes: IgG
B7: M2A11 (antibody, V domains shown)
VH: QVQLQESGPGLVKPSETLSLTCTVSGGSITSHYWSWVRQPPGKGLEWIAYIYYSGSTDYNPSLKSRVTISLDTSKNQVSLRLNSVTTADTAVYFCARCMPLYHVMHVWGHGTTVTVSS
VL: B6 VL with N28D, Y33S, N36H, Y54T, A66G, W89Y, T95S, S96G, W100Y, I101V
notes: IgG
B8: M3E04 (antibody, V domains shown)
VH: EVQLVESGGGLVKPGGSLRLSCAGSGFTFSSYSMNWVRQAPGKGLEWVSSISASSSYIYYADSLKGRFTISRDNAKNSLYLQMNSLRAEDTAVYYCARANYGSGNYYNPKWFDPWGQGTLVTVSS
VL: B6 VL with N36H, L41F, L48V, Y54N, A66G, T78S, W89Y, T95S, W100S
notes: IgG
B9: M2C07 (antibody, V domains shown)
VH: QVQLQESGPGLVAPSQTLSLICDVSGDSVTSGAYSWSWIRQHPVKGLEWIAYINYSGRTNYNPSLQSRLVISVDRSKNQFSLRLSSVTAADTAVYYCARANVVGYSGFYFDYWGQGTLVAVSS
VL: DIQMTQSPSSLSASVGDTVTITCRASQSVGAYLNWYQQKPGKAPKLLVFAGSSLQTGVPSRFSGRGSRTEFTLTITNLQREDFASYYCQQSLGDFLTFGGGTKVEIK
notes: IgG
B10: M2D03 (antibody, V domains shown)
VH: B9 VH with Y34H, F108Y
VL: B9 VL with T18R, V48I, T76S, S85T
notes: IgG
B11: M2D11 (antibody, V domains shown)
VH: QVQLQQWGAGLLKPSETLSLTCAVSGGSFSGYHWTWIRQPPGKGLEWIGEVDHGGNTNYNPSLMSRVTISVDMSTKQFSLRLTSMTAADTAVYYCARGFGVVINNWFDPWGQGTLVTVTS
VL: DIQMTQSPSSLSASVGDRVTITCRASQTISSYLNWYQQKPGKAPNLLIYTVSTLQSGVPSRFSGSGSGTDFTLTISSLQPEDFATYYCQQSYGAPYTFGQGTKLEIK
notes: IgG
B12: M3C11 (antibody, V domains shown)
VH: QVQLQESGPGLVKPSETLSLTCTVSGGSLSSYCWSWIRQPPGKGLEWIGYIYYSGGTNYNPSLKSRVTISVDTSKNQFSLNLSSVTAADTAVYYCARGEASGYLNYYFDYWGQGTLVAVSS
VL: SYELTQPPSVSVSPGQTASITCSGHKLGDKYAYWYQQKPGQSPVLVIYQDNKRPSGIPERFSGSNSGNTATLTISGTQAMDEADYYCQAWDSGTVFGGGTKLTVL
notes: IgG
B13: M3E10 (antibody, V domains shown)
VH: QVQLVQSGAEVKKPGSSVKVSCKASGGTINSYAISWVRQAPGQGPEWLGGIIPIFGTANYAQNFPGRVTITADASTSTVYMELSSLRSDDTAIYYCARGTRYIAVMVPSMQDYYFFGMDVWGQGTTVTVSS
VL: DIQLTQSPSFLSASVGDRVTITCRASQGISSYLAWYQQKPGQAPKLLIYAASTLQSGVPSRFSGSGSGTEFTLTISSLQPEDFATYYCQQVTSYPFSITFGQGTRLEIK
notes: IgG
B14: M3C04 (antibody, V domains shown)
VH: EVQLVQSGAEVKKPGESLKISCKGSGYNFANYWIGWVRQMPGKGLEWMGIIYPGDSDTRRNPSFQGHVTMSVDQSISTAYLQWSSLKASDTAMYYCARPLAVSAFDIWGQGTMVTVSS
VL: DIQMTQSPSSLSASVGDKLTITCRASQSISNYLNWYQQKSGKAPKLLIYAASSLQSGVPSRFSGSGSGTDFTLTISSLQPEDFATYYCQQSASTPHTFGQGTKVEIV
notes: IgG
B15: M3D10 (antibody, V domains shown)
VH: QVQLQESGPGLVKPSETLSLTCTVSGGSVSTYYWTWIRQPPGKGLDWIGYIYHNGNINYNPSLKSRVTMSVDTSKNQFSLKLTSVTAADTALYYCATVSFIGYSLYYFDRWGQGTLVTVSS
VL: DIQMTQSPSSLSASVGDRVTITCRASQNIASFLNWYQQRPGKAPDLLIYAASTLQTGVPSRFSGSGSGTDFTLAISSLQPEDFATYYCQQSYNTPFTFGQGTKLEIK
notes: IgG
B16: M3D05 (antibody, V domains shown)
VH: QVQLVQSGAEVKQPGASVKVSCKASGYTFSGYYIQWVRQAPGQGLEWMGWINPNSGGTNFAQKFQGRVTMTSDTSTSAAYMELSSLRSDDTAVYYCVRGQQLTRQYYFGMDVWGQGTTVTVSS
VL: QSVLTQPPSVSGAPGQRVIISCSGSSSNIRSNAVNWYQQLPGKAPKLLIFYDGLLPSGVSDRFSGSKTGNSASLAISGLQSEDEADYYCAAWDDSLNGPVFGGGTKLTVL
notes: IgG
B17: M2B01 (antibody, V domains shown)
VH: QVQLVESGGGVVQPGKSLRLSCAASGFTFSSHAMDWVRQVPGKGLEWVAVISYDGSNRYYADSVKGRFTISRDTSKNTLYLQMNSLRPEDTAVYYCARDFQPSPMVYGVGYFDYWGQGTLVTVSP
VL: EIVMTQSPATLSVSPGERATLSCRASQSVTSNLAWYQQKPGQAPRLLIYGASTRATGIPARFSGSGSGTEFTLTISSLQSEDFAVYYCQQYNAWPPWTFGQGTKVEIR
notes: IgG

What follows are binders tested against T1, Processed stabilized hMPV PreF trimer (115BV) (human metapneumovirus, strain B2) (assay: BLI, ratio to unprocessed PreF trimer).
T1 construct: also called Processed hMPV PreF trimer; processed PreF

Binder	processed/unprocessed PreF trimer binding ratio
B1	0.78
B2	1.03
B3	0.59
B4	1.23
B5	1.17
B6	1.04
B7	0.23
B8	0.13
B9	1.05
B10	1.1
B11	1.06
B12	0.25
B13	0.48
B14	0.82
B15	1.04
B16	0.25
B17	0.19

The binders below were run against T2, Unprocessed hMPV PreF trimer (human metapneumovirus, strain B2) (assay: BLI, mAb on anti-human Fc sensor).
T2 construct: also called Unprocessed hMPV WT PreF trimer; unprocessed hMPV PreF trimeric antigen

Binder	Octet binding response
B1	0.36 nm
B2	0.389 nm
B3	0.422 nm
B4	0.453 nm
B5	0.296 nm
B6	0.251 nm
B7	0.285 nm
B8	0.3 nm
B9	0.418 nm
B10	0.425 nm
B11	0.41 nm
B12	0.317 nm
B13	0.351 nm
B14	0.379 nm
B15	0.38 nm
B16	0.338 nm
B17	0.315 nm

What follows are binders tested against T3, hMPV PostF trimer (human metapneumovirus, strain B2) (assay: BLI, mAb on anti-human Fc sensor).
T3 construct: also called MPV PostF (dPFv1)

Binder	Octet binding response
B1	0.449 nm
B2	0.436 nm
B3	-0.0217 nm
B4	0.618 nm
B5	0.0826 nm
B6	-0.062 nm
B7	0.293 nm
B8	0.0262 nm
B9	0.454 nm
B10	0.503 nm
B11	0.43 nm
B12	0.433 nm
B13	0.0082 nm
B14	0.409 nm
B15	0.473 nm
B16	0.539 nm
B17	0.465 nm

Each binder was assayed against T1, Processed stabilized hMPV PreF trimer … (assay: BLI, mAb on anti-human Fc sensor).

Binder	Octet binding response
B1	0.281 nm
B2	0.401 nm
B3	0.249 nm
B4	0.557 nm
B5	0.347 nm
B6	0.261 nm
B7	0.0658 nm
B8	0.0401 nm
B9	0.44 nm
B10	0.466 nm
B11	0.436 nm
B12	0.0794 nm
B13	0.17 nm
B14	0.31 nm
B15	0.397 nm
B16	0.0831 nm
B17	0.0607 nm
